# Results reported in patent US20250115669A1, “FGFR1/KLB Targeting Agonistic Antigen-Binding Proteins and Conjugates Thereof with GLP-1R Agonistic Peptides” (SANOFI, priority 2020, published 2025).
# Where a chain is given by its changes, count along the chain named. In names and notes the source's numbering stands.
# T1: human beta-Klotho (Homo sapiens, UniProt Q86Z14)
# T1 sequence (Q86Z14 1-1044): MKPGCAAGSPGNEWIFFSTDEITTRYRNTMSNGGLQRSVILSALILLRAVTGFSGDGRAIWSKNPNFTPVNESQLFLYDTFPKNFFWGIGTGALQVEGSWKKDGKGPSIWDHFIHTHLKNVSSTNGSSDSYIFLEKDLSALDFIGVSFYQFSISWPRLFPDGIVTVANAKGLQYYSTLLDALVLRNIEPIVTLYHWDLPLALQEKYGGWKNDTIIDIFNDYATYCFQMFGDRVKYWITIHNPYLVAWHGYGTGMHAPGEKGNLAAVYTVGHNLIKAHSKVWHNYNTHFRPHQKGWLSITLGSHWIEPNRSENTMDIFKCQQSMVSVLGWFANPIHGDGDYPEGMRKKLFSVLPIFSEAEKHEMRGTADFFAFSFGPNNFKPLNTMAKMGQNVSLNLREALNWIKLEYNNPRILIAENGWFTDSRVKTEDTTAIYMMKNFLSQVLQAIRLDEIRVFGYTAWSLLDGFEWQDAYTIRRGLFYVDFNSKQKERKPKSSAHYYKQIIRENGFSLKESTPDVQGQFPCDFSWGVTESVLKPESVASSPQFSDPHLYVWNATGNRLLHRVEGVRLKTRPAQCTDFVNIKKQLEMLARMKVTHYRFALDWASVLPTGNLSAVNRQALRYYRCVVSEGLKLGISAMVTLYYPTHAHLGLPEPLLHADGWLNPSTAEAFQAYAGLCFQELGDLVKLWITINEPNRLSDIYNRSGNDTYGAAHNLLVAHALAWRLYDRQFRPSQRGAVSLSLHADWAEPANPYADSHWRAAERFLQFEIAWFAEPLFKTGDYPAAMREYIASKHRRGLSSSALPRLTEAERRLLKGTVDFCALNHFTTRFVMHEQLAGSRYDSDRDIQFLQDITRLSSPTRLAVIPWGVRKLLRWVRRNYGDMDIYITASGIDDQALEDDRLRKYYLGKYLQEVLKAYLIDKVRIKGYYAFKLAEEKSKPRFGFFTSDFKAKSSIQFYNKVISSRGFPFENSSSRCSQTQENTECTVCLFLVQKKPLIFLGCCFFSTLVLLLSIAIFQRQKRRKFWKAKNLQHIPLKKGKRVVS
# B1: Ab0380: IgG4 PE; 16H7 VL (Y48del, D95V, W90F, S1C, S94C); 16H7 VH (M34V, H52S, F54W, I83T, D109E) (antibody)
# VH: QVTLKESGPVLVKPTETLTLTCTVSGFSLNNARVGVSWIRQPPGKALEWLASIWSNDEKSYSTSLKSRLTISKDTSKSQVVLTMTNMDPVDTATYYCARSVVTGGYYYEGMDVWGQGTTVTVSS
# light: CYVLTQPPSVSVAPGQTARITCGGNNIGSESVHWYQQKPGQAPVLVVDDSDRPSGIPERFSGSNSGNTATLTISRVEAGDEADYYCQVFDGNCVHVVFGGGTKLTVLGQPKANPTVTLFPPSSEELQANKATLVCLISDFYPGAVTVAWKADGSPVKAGVETTKPSKQSNNKYAASSYLSLTPEQWKSHRSYSCQVTHEGSTVEKTVAPTECS
# B2: Ab0397: IgG4 PE; 16H7 VL (Y48del, D95A, W90F, S1C, S94C); 16H7 VH (M34V, F54W, I83T, D109E) (antibody)
# VH: B1 VH with S52H
# light: B1 light with V94A
# B3: Ab0383: IgG4 PE; 16H7 VL (Y48del, D95V, W90F); 16H7 VH (M34V, H52W, I83T, D109E) (antibody)
# VH: B1 VH with S52W, W54F
# light: B1 light with C1S, C93S
# B4: Ab0393: IgG4 PE; 16H7 VL (Y48del, D95S, W90F, S94C, H96C); 16H7 VH (M34V, H52W, I83T, D109E) (antibody)
# VH: B1 VH with S52W, W54F
# light: B1 light with C1S, V94S, H95C
# B5: Ab0404: IgG4 PE; 16H7 VL (Y48del, D95T, W90F); 16H7 VH (M34V, F54W, I83T, D109E) (antibody)
# VH: B1 VH with S52H
# light: B1 light with C1S, C93S, V94T
# B6: Ab0399: IgG4 PE; 16H7 VL (Y48del, D95A, W90F, S94C, H96C); 16H7 VH (M34V, F54W, I83T, D109E) (antibody)
# VH: B1 VH with S52H
# light: B1 light with C1S, V94A, H95C
# B7: Ab0382: IgG4 PE; 16H7 VL (Y48del, D95V, W90F, S94C, H96C); 16H7 VH (M34V, H52S, F54W, I83T, D109E) (antibody)
# VH: B1 VH
# light: B1 light with C1S, H95C
# B8: Ab0402: IgG4 PE; 16H7 VL (Y48del, D95A, W90F, S94C, H96C); 16H7 VH (M34V, H52W, I83T, D109E) (antibody)
# VH: B1 VH with S52W, W54F
# light: B1 light with C1S, V94A, H95C
# B9: Ab0396: IgG4 PE; 16H7 VL (Y48del, D95A, W90F); 16H7 VH (M34V, H52S, F54W, I83T, D109E) (antibody)
# VH: B1 VH
# light: B1 light with C1S, C93S, V94A
# B10: Ab0395: IgG4 PE; 16H7 VL (Y48del, D95A, W90F); 16H7 VH (M34V, F54W, I83T, D109E) (antibody)
# VH: B1 VH with S52H
# light: B1 light with C1S, C93S, V94A
# B11: Ab0381: IgG4 PE; 16H7 VL (Y48del, D95V, W90F, S94C, H96C); 16H7 VH (M34V, F54W, I83T, D109E) (antibody)
# VH: B1 VH with S52H
# light: B1 light with C1S, H95C
# B12: Ab0406: IgG4 PE; 16H7 VL (Y48del, D95T, W90F, S1C, S94C); 16H7 VH (M34V, H52S, F54W, I83T, D109E) (antibody)
# VH: B1 VH
# light: B1 light with V94T
# B13: Ab0392: IgG4 PE; 16H7 VL (Y48del, D95S, W90F); 16H7 VH (M34V, H52W, I83T, D109E) (antibody)
# VH: B1 VH with S52W, W54F
# light: B1 light with C1S, C93S, V94S
# B14: Ab0389: IgG4 PE; 16H7 VL (Y48del, D95S, W90F, S1C, S94C); 16H7 VH (M34V, H52S, F54W, I83T, D109E) (antibody)
# VH: B1 VH
# light: B1 light with V94S
# B15: Ab0405: IgG4 PE; 16H7 VL (Y48del, D95T, W90F); 16H7 VH (M34V, H52S, F54W, I83T, D109E) (antibody)
# VH: B1 VH
# light: B1 light with C1S, C93S, V94T
# B16: Ab0394: IgG4 PE; 16H7 VL (Y48del, D95S, W90F, S1C, S94C); 16H7 VH (M34V, H52W, I83T, D109E) (antibody)
# VH: B1 VH with S52W, W54F
# light: B1 light with V94S
# B17: Ab0398: IgG4 PE; 16H7 VL (Y48del, D95A, W90F, S1C, S94C); 16H7 VH (M34V, H52S, F54W, I83T, D109E) (antibody)
# VH: B1 VH
# light: B1 light with V94A
# B18: Ab0401: IgG4 PE; 16H7 VL (Y48del, D95A, W90F); 16H7 VH (M34V, H52W, I83T, D109E) (antibody)
# VH: B1 VH with S52W, W54F
# light: B1 light with C1S, C93S, V94A
# B19: Ab0403: IgG4 PE; 16H7 VL (Y48del, D95A, W90F, S1C, S94C); 16H7 VH (M34V, H52W, I83T, D109E) (antibody)
# VH: B1 VH with S52W, W54F
# light: B1 light with V94A
# B20: Ab0400: IgG4 PE; 16H7 VL (Y48del, D95A, W90F, S94C, H96C); 16H7 VH (M34V, H52S, F54W, I83T, D109E) (antibody)
# VH: B1 VH
# light: B1 light with C1S, V94A, H95C
# B21: Ab0390: IgG4 PE; 16H7 VL (Y48del, D95S, W90F, S94C, H96C); 16H7 VH (M34V, F54W, I83T, D109E) (antibody)
# VH: B1 VH with S52H
# light: B1 light with C1S, V94S, H95C
# B22: Ab0391: IgG4 PE; 16H7 VL (Y48del, D95S, W90F, S94C, H96C); 16H7 VH (M34V, H52S, F54W, I83T, D109E) (antibody)
# VH: B1 VH
# light: B1 light with C1S, V94S, H95C
# Target: T1, human beta-Klotho
# Assay: SPR off-rate screening of antibody mutants (human beta-Klotho captured by anti-His antibody)
# Type: binding
# Conditions: mean, n=3
# Protocol: Screening of antibody mutants for binding to human beta-Klotho was determined in a different SPR assay set up. Human beta-Klotho was affinity captured by an anti-His antibody (from His capture kit, GE Healthcare) that was immobilized to a series S CM5 chip (GE Healthcare) by amine reactive coupling as described above. The antibody samples were used as analytes at 50 nmol/L concentration. Association time was 240 sec and dissociation time was 300 sec. Chip surfaces were regenerated using the regeneration solution supplied with the His capture kit. The off-rates (kd) were determined using single exponential fitting in the Biacore 8K Evaluation Software version 1.1.1.7442 (GE Healthcare).
row,koff human KLB,Molecule
1,no binding,B1
2,no binding,B2
3,no binding,B3
4,no binding,B4
5,no binding,B5
6,no binding,B6
7,no binding,B7
8,no binding,B8
9,no binding,B9
10,no binding,B10
11,no binding,B11
12,no binding,B12
13,no binding,B13
14,no binding,B14
15,no binding,B15
16,no binding,B16
17,no binding,B17
18,no binding,B18
19,no binding,B19
20,no binding,B20
21,no binding,B21
22,no binding,B22
